This is an account of results in patent US20180282719A1 (published 2018).

Where two headings read alike, the source gives them in different places.

Assay [1] has as its target T1, recombinant soluble human IL-6 receptor (SR344) (human, UniProt P08887 20-344, biotinylated (sites not given) where immobilized via streptavidin or used in phage ELISA).
T1 construct: also called soluble IL-6 receptor; membrane-type IL-6 receptor (when biotinylated and immobilized on the chip)
T1 sequence (looked up): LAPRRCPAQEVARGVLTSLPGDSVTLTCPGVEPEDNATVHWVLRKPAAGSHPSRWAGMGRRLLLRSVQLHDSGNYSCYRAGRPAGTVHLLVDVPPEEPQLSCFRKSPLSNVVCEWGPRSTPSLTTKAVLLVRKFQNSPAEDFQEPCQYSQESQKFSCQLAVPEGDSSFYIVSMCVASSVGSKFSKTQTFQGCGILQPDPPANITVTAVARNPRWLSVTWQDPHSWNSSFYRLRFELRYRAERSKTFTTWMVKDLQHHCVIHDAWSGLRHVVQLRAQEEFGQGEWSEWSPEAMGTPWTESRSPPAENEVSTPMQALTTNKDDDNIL
The experiment in a line: SPR Biacore T100, antibody captured by anti-IgG gamma chain F(ab)2, SR344 analyte, pH 7.4, 37 C. On the procedure:
(§1) Kinetic analyses of antigen-antibody reactions at pH 7.4 were carried out on the four types of antibodies, i.e., the humanized PM1 antibody (wild type: WT), and […], H3pI/L73-IgG1, Fv2-IgG1, and Fv4-IgG1 constructed in Examples 2 and 10, by using a Biacore T100™ surface plasmon resonance system (GE Healthcare) (buffer: 10 mM MES (pH 7.4), 150 mM NaCl, 0.05% TWEEN® 20 (polyoxyethelene sorbitan monolaurate)). Each antibody was bound on a sensor chip on which an anti-IgG γ chain specific F(ab)₂ (Pierce) was immobilized by amine coupling, and then, SR344 adjusted to a concentration of 9.8 to 40 nM was injected thereto as an analyte. The association to and dissociation from SR344 were observed on a real-time basis for the pH-dependent-binding clones. All the measurements were carried out at 37° C. Association rate constants kₐ (1/Ms) and dissociation rate constants kd (1/s) were calculated using Biacore T100™ Evaluation Software (GE Healthcare), and dissociation constants KD (M) were calculated on the basis of those values (Table 7).
(§2) The association to and dissociation from SR344 were observed on a real-time basis using the same method as Example 10 for the eleven types of antibodies, humanized PM1 antibody (wild type: WT) and H3pI/L73-IgG1, Fv1-M71, Fv1-M73, Fv2-IgG1, Fv3-M71, Fv3-M73, Fv4-IgG1, Fv4-IgG2, Fv4-M58, and Fv4-M73, constructed as described above. The association rate constants kₐ (1/Ms) and dissociation rate constants kd. (1/s) were calculated by analysis in the same manner, and the dissociation constants KD (M) were calculated on the basis of those values (Table 11).

The target of assay [2] is T1, recombinant soluble human IL-6 receptor …. The description is as above. On the procedure: as §1, §2
The source holds these as a separate data set.

For assay [3] the target is unchanged. The experiment in a line: SPR Biacore T100, biotinylated SR344 on streptavidin chip (model of membrane-type IL-6 receptor), antibody as analyte, 37 C. On the procedure:
(§3) Binding to the membrane-type IL-6 receptor was evaluated by evaluating binding to the IL-6 receptor immobilized on a sensor chip. SR344 was biotinylated in accordance with a method known among persons with ordinary skill in the art, and the biotinylated SR344 was immobilized on the sensor chip via streptavidin using the affinity between streptavidin and biotin. All the measurements were carried out at 37° C. The mobile phase buffer was 10 mM MES (pH 5.8), 150 mM NaCl and 0.05% TWEEN® 20 (polyoxyethelene sorbitan monolaurate).
(§4) The pH-dependently-binding clones were injected under the condition of pH 7.4 to allow them to bind to SR344, and then, the pH-dependent dissociation of each clone at the pH of the mobile phase, pH 5.8, was observed. The results are shown in FIG. 21 (results for Fv1-M71, Fv1-M73, Fv3-M71, and Fv3-M73 are shown in FIG. 21, while results for other clones are shown in FIGS. 17 and 19). Analyses were carried out in the same manner as in Example 10 and the pH dependencies of the dissociation rate constants of all of the eleven types of clones are shown in Table 12.

Assay [4] has the same target. Described as above. On the procedure: as §3, §4
This is another data set of the same source.

Assay [5] shares this target. The experiment in a line: SPR Biacore T100, biotinylated SR344 on streptavidin chip (model of membrane-type IL-6 receptor), antibody as analyte, bound at pH 7.4, dissociation at pH 5.8, 37 C. On the procedure:
as §3, §4

Assay [6] shares this target. The experiment in a line: SPR Biacore T100, biotinylated SR344 on streptavidin chip (model of membrane-type IL-6 receptor), antibody as analyte, bound at pH 7.4, dissociation at pH 7.4, 37 C. On the procedure: as §3, §4
For assay [7] the target is unchanged. The experiment in a line: SPR Biacore T100, biotinylated SR344 on streptavidin chip (model of membrane-type IL-6 receptor), antibody as analyte, bound at pH 7.4, dissociation at pH 5.8, 37 C. On the procedure:
as §3, §4
The source holds these as a separate data set.

For assay [8] the target is unchanged. The experiment in a line: SPR Biacore T100, biotinylated SR344 on streptavidin chip (model of membrane-type IL-6 receptor), antibody as analyte, bound at pH 7.4, dissociation at pH 7.4, 37 C. On the procedure:
as §3, §4
This is another data set of the same source.

B1: Fv4-M58 (antibody)
heavy: QVQLQESGPGLVKPSETLSLTCAVSGHSISHDHAWSWVRQPPGEGLEWIGFISYSGITNYNPSLQGRVTISRDNSKNTLYLQMNSLRAEDTAVYYCARSLARTTAMDYWGEGTLVTVSSASTKGPSVFPLAPSSKSTSGGTAALGCLVKDYFPEPVTVSWNSGALTSGVHTFPAVLQSSGLYSLSSVVTVPSSNFGTQTYTCNVDHKPSNTKVDKTVERKSCVECPPCPAPPVAGPSVFLFPPKPKDTLMISRTPEVTCVVVDVSQEDPEVQFNWYVDGVEVHNAKTKPREEQFNSTFRVVSVLTVVHQDWLNGKEYKCKVSNKGLPAPIEKTISKTKGQPREPQVYTLPPSQEEMTKNQVSLTCLVKGFYPSDIAVEWESNGQPENNYKTTPPMLDSDGSFFLYSKLTVDKSRWQEGNVFSCSVMHEALHNHYTQKSLSLSP
light: DIQMTQSPSSLSASVGDSVTITCQASTDISSHLNWYQQKPGKAPELLIYYGSHLLSGVPSRFSGSGSGTDFTFTISSLEAEDAATYYCGQGNRLPYTFGQGTKVEIERTVAAPSVFIFPPSDEQLKSGTASVVCLLNNFYPREAKVQWKVDNALQSGNSQESVTEQDSKDSTYSLSSTLTLSKADYEKHKVYACEVTHQGLSSPVTKSFNRGEC
notes: VH3-M58 / VL3-CK
Regarding B1, the Kd in assay [1] and in assay [2] was 1.4 nM each time. For the same molecule, the koff in assay [1] was determined as 0.0011 s⁻¹; in assay [2], 0.0011 s⁻¹; in assay [5] it was 0.0095 s⁻¹; in assay [6] it was 0.00054 s⁻¹; in assay [7], 0.0095 s⁻¹; in assay [8], 0.00054 s⁻¹. Moreover, the kon in assay [1] and in assay [2] was 830000 M⁻¹ s⁻¹ each time. Also, the “kd (pH 5.8)/kd (pH 7.4)” value in assay [3] and in assay [4] was 17.6 each time.

B2: Fv4-M73 (antibody)
heavy: QVQLQESGPGLVKPSETLSLTCAVSGHSISHDHAWSWVRQPPGEGLEWIGFISYSGITNYNPSLQGRVTISRDNSKNTLYLQMNSLRAEDTAVYYCARSLARTTAMDYWGEGTLVTVSSASTKGPSVFPLAPSSKSTSGGTAALGCLVKDYFPEPVTVSWNSGALTSGVHTFPAVLQSSGLYSLSSVVTVPSSNFGTQTYTCNVDHKPSNTKVDKTVERKSCVECPPCPAPPVAGPSVFLFPPKPKDTLMISRTPEVTCVVVDVSQEDPEVQFNWYVDGVEVHNAKTKPREEQFNSTFRVVSVLTVVHQDWLNGKEYKCKVSNKGLPAPIEKTISKTKGQPREPQVYTLPPSQEEMTKNQVSLTCLVKGFYPSDIAVEWESNGQPENNYKTTPPMLDSDGSFFLYSKLTVDKSRWQEGNVFSCSVMHEALHAHYTQKSLSLSP
light: DIQMTQSPSSLSASVGDSVTITCQASTDISSHLNWYQQKPGKAPELLIYYGSHLLSGVPSRFSGSGSGTDFTFTISSLEAEDAATYYCGQGNRLPYTFGQGTKVEIERTVAAPSVFIFPPSDEQLKSGTASVVCLLNNFYPREAKVQWKVDNALQSGNSQESVTEQDSKDSTYSLSSTLTLSKADYEKHKVYACEVTHQGLSSPVTKSFNRGEC
notes: VH3-M73 / VL3-CK
In the case of B2, the Kd in assay [1] and in assay [2] was 1.4 nM throughout. Moreover, the koff in assay [1] was 0.001 s⁻¹; in assay [2] it was 0.001 s⁻¹; in assay [5] it was 0.0051 s⁻¹; in assay [6] it was 0.00051 s⁻¹; in assay [7] it was 0.0051 s⁻¹; in assay [8], 0.00051 s⁻¹. Besides, the kon in assay [1] and in assay [2] was 750000 M⁻¹ s⁻¹ each time. The “kd (pH 5.8)/kd (pH 7.4)” value in assay [3] and in assay [4] was 10.1 each time.

B3: Fv4-IgG2 (antibody)
heavy: QVQLQESGPGLVKPSETLSLTCAVSGHSISHDHAWSWVRQPPGEGLEWIGFISYSGITNYNPSLQGRVTISRDNSKNTLYLQMNSLRAEDTAVYYCARSLARTTAMDYWGEGTLVTVSSASTKGPSVFPLAPCSRSTSESTAALGCLVKDYFPEPVTVSWNSGALTSGVHTFPAVLQSSGLYSLSSVVTVPSSNFGTQTYTCNVDHKPSNTKVDKTVERKCCVECPPCPAPPVAGPSVFLFPPKPKDTLMISRTPEVTCVVVDVSHEDPEVQFNWYVDGVEVHNAKTKPREEQFNSTFRVVSVLTVVHQDWLNGKEYKCKVSNKGLPAPIEKTISKTKGQPREPQVYTLPPSREEMTKNQVSLTCLVKGFYPSDIAVEWESNGQPENNYKTTPPMLDSDGSFFLYSKLTVDKSRWQQGNVFSCSVMHEALHNHYTQKSLSLSP
light: DIQMTQSPSSLSASVGDSVTITCQASTDISSHLNWYQQKPGKAPELLIYYGSHLLSGVPSRFSGSGSGTDFTFTISSLEAEDAATYYCGQGNRLPYTFGQGTKVEIERTVAAPSVFIFPPSDEQLKSGTASVVCLLNNFYPREAKVQWKVDNALQSGNSQESVTEQDSKDSTYSLSSTLTLSKADYEKHKVYACEVTHQGLSSPVTKSFNRGEC
notes: VH3-IgG2deltaGK / VL3-CK; also called Fv4-IgG2deltaGK
With B3, the Kd in assay [1] and in assay [2] was 1.3 nM throughout. Moreover, the koff in assay [1] was 0.0012 s⁻¹; in assay [2], 0.0012 s⁻¹; in assay [5], 0.018 s⁻¹; in assay [6], 0.001 s⁻¹; in assay [7], 0.018 s⁻¹; in assay [8], 0.001 s⁻¹. Further, the kon in assay [1] and in assay [2] was 960000 M⁻¹ s⁻¹ in each case. For the same molecule, the “kd (pH 5.8)/kd (pH 7.4)” value in assay [3] and in assay [4] was 17 throughout.
